Binding data for three substances are collected here from patent US20180142222.

The target in data set [1] is Cas9HNH (Cy3/Cy5-labelled reporter Cas9; dCas9HNH for binding data) C80S,C574S,S355C,S867C (Streptococcus pyogenes) (UniProt Q99ZW2). The conditions noted are these: direct binding assay estimate.
The target in data set [2] is Cas9hinge (Cy3/Cy5-labelled reporter Cas9) C80S,C574S,D435C,E945C (Streptococcus pyogenes) (UniProt Q99ZW2). The conditions noted are these: bound but (ratio)A indistinguishable from apo.

Read-outs that look alike come from different tables or passages of the source. Some results are limits rather than exact numbers.

As to “full-length sgRNA ; PAM-distal mismatch DNA”, the binding in data set [1] ((ratio)A falls with mismatch number, dCas9 gives stable footprint on these substrates) was above 89 % bound. For full-length sgRNA ; on-target DNA, the binding in data set [1] (large FRET increase on target DNA) was above 89 % bound. For sgRNA delta-spacer1-20, the binding in data set [2] is above 95 % bound.
